Consider six molecules from paper PMC10662374, “Structures of the interleukin 11 signalling complex reveal gp130 dynamics and the inhibitory mechanism of a cytokine variant” (Nature Communications, 2023).

The target of data set [1] is T1, IL-11Rα_(D1-D3) (human, UniProt Q14626 23-319, N-linked glycans (N105, N172 seen in the structures)).
T1 construct: Secreted with a honeybee-melittin signal peptide; also called C-terminally truncated form of IL-11Rα; not shown: His8, N-terminal, cleaved
T1 sequence: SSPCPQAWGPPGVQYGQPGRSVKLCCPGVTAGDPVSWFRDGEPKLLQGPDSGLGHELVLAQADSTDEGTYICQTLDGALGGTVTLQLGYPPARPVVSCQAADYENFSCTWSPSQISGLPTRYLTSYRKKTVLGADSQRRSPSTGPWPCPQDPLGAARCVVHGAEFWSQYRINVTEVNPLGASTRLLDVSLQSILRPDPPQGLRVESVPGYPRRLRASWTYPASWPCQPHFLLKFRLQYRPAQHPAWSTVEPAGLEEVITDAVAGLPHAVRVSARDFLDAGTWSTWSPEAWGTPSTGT
The data set is described as follows: SPR; Biacore T200, 25 °C, TBS pH 8.5 + 0.05% Tween, 30 μL/min; biotinylated IL-11-avi on a streptavidin chip, IL-11Rα_(D1-D3) flowed over (two-fold dilutions from 500 nM), 1:1 kinetic model, n = 2. As to conditions: both partners purified.

Data set [2] concerns the molecule itself. The data set is described as follows: cell-based or functional assay.
For data set [3], the target named is T2, IL-11RαD1-D3 (C-terminally truncated form of human IL-11Rα, structured extracellular domains D1-D3) (human, UniProt Q14626 23-319).
T2 construct: interleukin 11 receptor subunit alpha, human, domains D1-D3 (C-terminally truncated extracellular region); Expressed with a honeybee-melittin signal peptide; not shown: His8, N-terminal, cleaved
T2 sequence: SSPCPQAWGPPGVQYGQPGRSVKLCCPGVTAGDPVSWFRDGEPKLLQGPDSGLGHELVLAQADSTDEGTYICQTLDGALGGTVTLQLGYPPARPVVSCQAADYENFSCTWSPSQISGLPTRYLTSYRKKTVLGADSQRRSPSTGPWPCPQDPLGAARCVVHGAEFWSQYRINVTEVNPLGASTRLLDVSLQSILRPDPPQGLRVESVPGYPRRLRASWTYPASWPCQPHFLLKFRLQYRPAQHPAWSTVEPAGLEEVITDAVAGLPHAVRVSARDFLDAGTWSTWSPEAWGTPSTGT
The data set is described as follows: SPR; Biacore T200; biotinylated IL-11-avi constructs immobilised on a streptavidin chip; IL-11RαD1-D3 injected, two-fold dilutions from 500 nM; 25 °C (298 K); TBS pH 8.5 + 0.05% Tween; 30 μL/min; 1:1 kinetic model; n = 2. Conditions: both partners purified.

The target of data set [4] is T1, IL-11Rα_(D1-D3). As to the kind of experiment: cell-based or functional assay.
For data set [5], the target named is T1, IL-11Rα_(D1-D3). The data set is described as follows: ITC; cytokine in the syringe (10-fold above IL-11Rα), IL-11Rα_(D1-D3) in the cell at 10 μM, TBS pH 8.5, 1:1 interaction model, n = 3. Conditions: both partners purified. For orientation: Isothermal titration calorimetry measures the heat released or taken up as one component is titrated into another.
The target in data set [6] is T3, IL-11Δ10/IL-11Rα_(D1-D3) binary complex (human, UniProt P20809 32-199; Q14626 23-319).
T3 construct: IL-11, human, IL-11Δ10, as m1; numbers count on: the mature protein; IL-11Rα, human, D1-D3, as m8; m1 with m8; also called IL-11Rα_(D1-D3)/IL-11Δ10 binary complex; binary IL-11/IL-11Rα complex; source: formed from the purified proteins (IL-11Δ10 from E. coli, IL-11Rα_(D1-D3) from Sf21); in ITC by titrating the cytokine into IL-11Rα; not shown: His6, N-terminal, cleaved; His8, N-terminal, cleaved; …
T3 sequence 1: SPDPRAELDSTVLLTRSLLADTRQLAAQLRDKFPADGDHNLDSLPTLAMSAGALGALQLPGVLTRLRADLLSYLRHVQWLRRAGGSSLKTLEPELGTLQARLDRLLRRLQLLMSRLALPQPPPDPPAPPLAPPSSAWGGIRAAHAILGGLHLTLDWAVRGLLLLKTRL
T3 sequence 2: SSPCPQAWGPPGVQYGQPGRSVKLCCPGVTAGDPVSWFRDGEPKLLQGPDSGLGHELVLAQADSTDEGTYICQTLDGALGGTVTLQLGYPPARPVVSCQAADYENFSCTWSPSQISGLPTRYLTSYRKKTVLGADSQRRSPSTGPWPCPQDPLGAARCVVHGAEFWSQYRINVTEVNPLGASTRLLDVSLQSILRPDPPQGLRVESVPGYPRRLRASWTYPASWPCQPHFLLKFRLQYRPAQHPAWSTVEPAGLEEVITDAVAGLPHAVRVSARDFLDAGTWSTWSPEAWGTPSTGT
The data set is described as follows: ITC; gp130 in the syringe titrated against the cytokine/IL-11Rα_(D1-D3) complex formed in the cell, 288 K, TBS pH 8.5, 1:1 interaction model, n = 3. As to conditions: both partners purified.

B1: biotinylated IL-11_(Δ10/Mutein)-avi (ligand, human)
chain: SPDPRAELDSTVLLTRSLLADTRQLAAQLRDKFPADGDHNLDSLPTLPAIDYALGALQLPGVLTRLRADLLSYLRHVQWLRRAGGSSLKTLEPELGTLQARLDRLLRRLQLLMSRLALPQPPPDPPAPPLAPPSSAAGGIRAAHAILGGLHLTLDWAVRGLLLLKTRL
modifications: biotin on the C-terminal avitag
notes: interleukin 11 (IL-11), human, IL-11Δ10 with W147A and 58-62 AMSAG changed to PAIDY; numbers count on: the mature protein; source: E. coli BL21(DE3), biotinylated, purified as IL-11Δ10; not shown: His6, N-terminal, cleaved; avitag, C-terminal, kept
As usually defined, the koff is the first-order rate constant of dissociation. Turning to B1, the koff in data set [1] came out at 0.034 s⁻¹.

B2: biotinylated IL-11Δ10-avi (ligand, human)
chain: SPDPRAELDSTVLLTRSLLADTRQLAAQLRDKFPADGDHNLDSLPTLAMSAGALGALQLPGVLTRLRADLLSYLRHVQWLRRAGGSSLKTLEPELGTLQARLDRLLRRLQLLMSRLALPQPPPDPPAPPLAPPSSAWGGIRAAHAILGGLHLTLDWAVRGLLLLKTRL
modifications: biotin on the C-terminal avitag
notes: interleukin 11 (IL-11), human, N-terminally truncated form IL-11Δ10; numbers count on: the mature protein; source: E. coli BL21(DE3), biotinylated, purified as IL-11Δ10; not shown: His6, N-terminal, cleaved; avitag, C-terminal, kept
Take B2: in data set [1], the dissociation rate constant (koff) worked out at 0.11 s⁻¹.

B3: IL-11_(Δ10/W147A)/IL-11Rα_(D1-D3)/gp130_(D1-D3) trimer (complex, human)
chain 1: SPDPRAELDSTVLLTRSLLADTRQLAAQLRDKFPADGDHNLDSLPTLAMSAGALGALQLPGVLTRLRADLLSYLRHVQWLRRAGGSSLKTLEPELGTLQARLDRLLRRLQLLMSRLALPQPPPDPPAPPLAPPSSAAGGIRAAHAILGGLHLTLDWAVRGLLLLKTRL
chain 2: SSPCPQAWGPPGVQYGQPGRSVKLCCPGVTAGDPVSWFRDGEPKLLQGPDSGLGHELVLAQADSTDEGTYICQTLDGALGGTVTLQLGYPPARPVVSCQAADYENFSCTWSPSQISGLPTRYLTSYRKKTVLGADSQRRSPSTGPWPCPQDPLGAARCVVHGAEFWSQYRINVTEVNPLGASTRLLDVSLQSILRPDPPQGLRVESVPGYPRRLRASWTYPASWPCQPHFLLKFRLQYRPAQHPAWSTVEPAGLEEVITDAVAGLPHAVRVSARDFLDAGTWSTWSPEAWGTPSTGT
chain 3: GELLDPCGYISPESPVVQLHSNFTAVCVLKEKCMDYFHVNANYIVWKTNHFTIPKEQYTIINRTASSVTFTDIASLNIQLTCNILTFGQLEQNVYGITIISGLPPEKPKNLSCIVNEGKKMRCEWDGGRETHLETNFTLKSEWATHKFADCKAKRDTPTSCTVDYSTVYFVNIEVWVEAENALGKVTSDHINFDPVYKVKPNPPHNLSVINSEELSSILKLTWTNPSIKSVIILKYNIQYRTKDASTWSQIPPEDTASTRSSFTVQDLKPFTEYVFRIRCMKEDGKGYWSDWSEEASGITYEDR
As for B3, the “EC50 of STAT3 activation (pSTAT3, flow cytometry) by IL-11_(Δ10/W147A) in Ba/F3 cells stably expressing human gp130 and IL-11Rα” value in data set [2] was 610 pM.

B4: biotinylated IL-11Δ10/Mutein-avi (ligand, human)
chain: SPDPRAELDSTVLLTRSLLADTRQLAAQLRDKFPADGDHNLDSLPTLPAIDYALGALQLPGVLTRLRADLLSYLRHVQWLRRAGGSSLKTLEPELGTLQARLDRLLRRLQLLMSRLALPQPPPDPPAPPLAPPSSAAGGIRAAHAILGGLHLTLDWAVRGLLLLKTRL
modifications: biotin on the C-terminal avitag
notes: interleukin 11, human, Δ10 with W147A and 58PAIDY62, as Dm7; numbers count on: the mature protein; also called IL11Δ10/Mutein - Avitag; source: E. coli BL21(DE3), biotinylated in the cells, purified as IL-11Δ10; not shown: avitag, C-terminal, kept; His6, N-terminal, cleaved
In general, Kd refers to the constant that tells how readily two partners part at equilibrium. Usually kon stands for the rate constant with which the complex forms. For B4, in data set [3], the Kd came out at 33 nM and the association rate constant (kon) was 1e+06 M⁻¹ s⁻¹.

B5: IL-11_(Δ10/Mutein) (ligand, human)
chain: SPDPRAELDSTVLLTRSLLADTRQLAAQLRDKFPADGDHNLDSLPTLPAIDYALGALQLPGVLTRLRADLLSYLRHVQWLRRAGGSSLKTLEPELGTLQARLDRLLRRLQLLMSRLALPQPPPDPPAPPLAPPSSAAGGIRAAHAILGGLHLTLDWAVRGLLLLKTRL
notes: interleukin 11 (IL-11), human, IL-11Δ10 with W147A and AB loop residues 58-62 AMSAG changed to PAIDY; numbers count on: the mature protein; Parent construct IL-11Δ10; also called IL-11 Mutein; not shown: His6, N-terminal, cleaved
Take B5: the “IC50 of inhibition of IL-11Δ10 (20 ng/mL) mediated STAT3 activation (pSTAT3, flow cytometry) in Ba/F3 cells stably expressing human gp130 and IL-11Rα; competes with IL-11 for IL-11Rα and gp130” value in data set [4] turned out to be 850 nM. In data set [5], this molecule registered a Kd of 38 nM.

B6: gp130EC (receptor, human, UniProt P40189 23-619, looked up)
chain: ELLDPCGYISPESPVVQLHSNFTAVCVLKEKCMDYFHVNANYIVWKTNHFTIPKEQYTIINRTASSVTFTDIASLNIQLTCNILTFGQLEQNVYGITIISGLPPEKPKNLSCIVNEGKKMRCEWDGGRETHLETNFTLKSEWATHKFADCKAKRDTPTSCTVDYSTVYFVNIEVWVEAENALGKVTSDHINFDPVYKVKPNPPHNLSVINSEELSSILKLTWTNPSIKSVIILKYNIQYRTKDASTWSQIPPEDTASTRSSFTVQDLKPFTEYVFRIRCMKEDGKGYWSDWSEEASGITYEDRPSKAPSFWYKIDPSHTQGYRTVQLVWKTLPPFEANGKILDYEVTLTRWKSHLQNYTVNATKLTVNLTNDRYLATLTVRNLVGKSDAAVLTIPACDFQATHPVMDLKAFPKDNMLWVEWTTPRESVKKYILEWCVLSDKAPCITDWQQEDGTVHRTYLRGNLAESKCYLITVTPVYADGPGSPESIKAYLKQAPPSKGPTVRTKKVGKNEAVLEWDQLPVDVQNGFIRNYTIFYRTIIGNETAVNVDSSHTEYTLSSLTSDTLYMVRMAAYTDEGGKDGPEFTFTTPKFAQGEIE
modifications: N-linked glycans (N21, N61, N135 seen in the structures)
notes: Secreted with a honeybee-melittin signal peptide; D5-D6 are not in the deposited model 8DPT; also called complete extracellular domains of gp130; D1-D6 domains of gp130; not shown: His8, N-terminal, cleaved
For B6, the dH in data set [6] was -4.78 kcal/mol.
